We go through five molecules from patent US20110123676A1, “ENZYMATIC TREATMENT OF A PROTEINACEOUS SUBSTRATE BY ENZYMATIC REMOVAL OF FREE THIOLS” (priority 2008, published 2011).

“Also recorded” adds a separate entry of the source.

In data set [1] the test system is tyrosinase. Kind of data set: Tyrosinase spot assay and test of inhibition (skimmed milk). It is filed as biochemical, Hypocrea jecorina. The note with it: activity spot test, cysteine and enzyme in contact about 1 min before adding the substrate. On the procedure: Tyrosinase Spot Assay and Test of Inhibition Spot assay of tyrosinase activity was determined by adding 11 nkat of tyrosinase to 1 ml of skimmed milk. Red colour formation within 5-10 seconds is an indication of high of tyrosinase activity. To test for tyrosinase inhibition, either the inhibitor is mixed with tyrosinase before addition to the milk or the inhibitor is added to the milk prior to tyrosinase addition. The inhibitors tested were free cysteine at final concentrations of 1 or 0.1 mM or meat extracts diluted 10 times in the final sample.

Data set [2] deals with myosin. Briefly: SDS-PAGE analysis of protein cross-linking, pork extract. It is filed as biochemical. Conditions: for protein cross-linking (SDS-PAGE): treatment with the named enzyme alone, vs reference. On the procedure: (§1) Protein Extractions: • 1. Brine was made using 2% NaCl and 0.3% STPP • 2. 20 g portions of meat were placed in 250 ml baffled shake flasks • 3. 60 ml of brine were added to each shake flask. • 4. The shake flasks were placed on a rotary shaker (Certomat R, Braun Int.); 120 min at room temperature and 180 rpm • 5. The meat-brine suspension was centrifuged for 60 min at 10000 g and 5° C. • 6. The fat particles were removed by filtering the supernatant through a 0.8 mm grid • 7. The meat-protein extract (supernatant) was stored at −18° C. Dialysis was carried out in Slide-A-Lyzer Dialysis Cassette from Pierce (Order nr: 66810). The dialysis was carried out at 4° C. overnight with one shift of dialysis buffer. Sample Preparation/Enzyme Treatment for SDS-PAGE Analysis Enzyme treatment of the protein extracts prior to SDS-PAGE analysis was done as follows: Tyrosinase was added to a final concentration of 15.5 nkat/ml extract (corresponding to 0.015 mg tyrosinase per ml extract) and incubated for 60 min at 40° C. TGase was added to a final concentration of 2.5 nkat/ml extract (corresponding to 0.015 mg TGase pr. ml extract) and incubated for 60 min at 40° C. sulfhydryl oxidase was added to a final concentration of 0.0033 (low sulfhydryl oxidase) or 0.033 (high sulfhydryl oxidase) nkat/ml. It was always added prior to or simultaneously with other enzyme treatment. If added prior to other enzyme treatment, an incubation time of 60 min at room temperature was applied. SDS-Page Analysis: SDS-PAGE was carried out on Pre-cast Novex Bis-Tris gels (Invitrogen, Carlsbad Calif., USA) according to manufacturers' protocol. For non-reducing SDS-PAGE, DTT was left out of the sample buffer.

The test system of data set [3] is myosin. Briefly: SDS-PAGE analysis of protein cross-linking, lamb extract. Type of data set: biochemical. The note with it: treatment with the named enzyme alone, vs reference. The method, then: as §1, with “C.” for “C. Dialysis was carried out in Slide-A-Lyzer Dialysis Cassette from Pierce (Order nr: 66810). The dialysis was carried out at 4° C. overnight with one shift of dialysis buffer.”, “SDS-Page Analysis: SDS-PAGE was carried out on Pre-cast Novex Bis-Tris gels (Invitrogen, Carlsbad Calif., USA) according to manufacturers' protocol. For non-reducing SDS-PAGE, DTT was left out of the sample buffer.” left out

Data set [4] relates to myosin. Kind of data set: SDS-PAGE analysis of protein cross-linking, cod extract. It is filed as biochemical. Conditions: treatment with the named enzyme alone, vs reference. On the procedure:
as §1, with “C.” for “C. Dialysis was carried out in Slide-A-Lyzer Dialysis Cassette from Pierce (Order nr: 66810). The dialysis was carried out at 4° C. overnight with one shift of dialysis buffer.”, “SDS-Page Analysis: SDS-PAGE was carried out on Pre-cast Novex Bis-Tris gels (Invitrogen, Carlsbad Calif., USA) according to manufacturers' protocol. For non-reducing SDS-PAGE, DTT was left out of the sample buffer.” left out

Data set [5] relates to myosin. Kind of data set: SDS-PAGE analysis of protein cross-linking, chicken extract. Type of data set: biochemical. Conditions: treatment with the named enzyme alone, vs reference. The method, then: as §1, with “C.” for “C. Dialysis was carried out in Slide-A-Lyzer Dialysis Cassette from Pierce (Order nr: 66810). The dialysis was carried out at 4° C. overnight with one shift of dialysis buffer.”, “SDS-Page Analysis: SDS-PAGE was carried out on Pre-cast Novex Bis-Tris gels (Invitrogen, Carlsbad Calif., USA) according to manufacturers' protocol. For non-reducing SDS-PAGE, DTT was left out of the sample buffer.” left out

The conditions of data set [6]: according to supplier; cited from earlier work.
In data set [7] the test system is myosin. Kind of data set: SDS-PAGE analysis of protein cross-linking, turkey extract. Type of data set: biochemical. The note with it: treatment with the named enzyme alone, vs reference. On the procedure: as §1, with “C.” for “C. Dialysis was carried out in Slide-A-Lyzer Dialysis Cassette from Pierce (Order nr: 66810). The dialysis was carried out at 4° C. overnight with one shift of dialysis buffer.”, “SDS-Page Analysis: SDS-PAGE was carried out on Pre-cast Novex Bis-Tris gels (Invitrogen, Carlsbad Calif., USA) according to manufacturers' protocol. For non-reducing SDS-PAGE, DTT was left out of the sample buffer.” left out

Data set [8] relates to myosin. Kind of data set: SDS-PAGE analysis of protein cross-linking, beef extract. Conditions: for protein cross-linking (SDS-PAGE): treatment with the named enzyme alone, vs reference. Type of data set: biochemical. The method, then:
as §1, with “C.” for “C. Dialysis was carried out in Slide-A-Lyzer Dialysis Cassette from Pierce (Order nr: 66810). The dialysis was carried out at 4° C. overnight with one shift of dialysis buffer.”

Data set [9] can be described thus: Tyrosinase activity (nkat). Type of data set: biochemical. Conditions: enzyme used in the examples. The method, then:
One unit of tyrosinase activity—1 nkat is defined as the amount of enzyme that converts 1 nmol of L-DOPA into DOPA-quinone pr. second at pH 7 and 25° C.

The conditions of data set [10]: according to supplier; cited from earlier work. This is another data set of the same source.

Turning to `N[C@@H](CS)C(=O)O` [cysteine], the “cysteine concentration giving inhibition of the tyrosinase” value was “above 10 μM” in [1] and “about 10 μM” in [1] (listed as free cysteine).
With `O=P(O)(O)OP(=O)(O)OP(=O)(O)O` [STPP, Sodium tripolyphosphate], the “effect of removing STPP on tyrosinase cross-linking (SDS-PAGE)” value in [2] (pork extract dialysed against a solution free of STPP) is given as “no further efficiency of tyrosinase cross-linking was observed”.
As to `[Cu]` [copper], in data set [2] (pork extract, results not shown), the “effect of extra copper on tyrosinase activity” value is recorded as “did not seem to enhance tyrosinase activity”.

B1: TGase: TGase (Activa MP; Ajinomoto), well-known protein cross-linking enzyme used as positive reference (protein, UniProt P81453 77-407, looked up)
Protein-glutamine …: DSDDRVTPPAEPLDRMPDPYRPSYGRAETVVNNYIRKWQQVYSHRDGRKQQMTEEQREWLSYGCVGVTWVNSGQYPTNRLAFASFDEDRFKNELKNGRPRSGETRAEFEGRVAKESFDEEKGFQRAREVASVMNRALENAHDESAYLDNLKKELANGNDALRNEDARSPFYSALRNTPSFKERNGGNHDPSRMKAVIYSKHFWSGQDRSSSADKRKYGDPDAFRPAPGTGLVDMSRDRNIPRSPTSPGEGFVNFDYGWFGAQTEADADKTVWTHGNHYHAPNGSLGAMHVYESKFRNWSEGYSDFDRGAYVITFIPKSWNTAPDKVKQGWP
Turning to B1, the “protein cross-linking (SDS-PAGE)” value in [3], in data set [2] (pork extract), in data set [4], in data set [5], in [7] and in data set [8] was “efficient” throughout. For the same molecule, the TGase activity in [6] is reported as 1666 nkat/g.

B2: TrTyr2: Tyrosinase (TrTyr2; VTT, Finland); tyrosinase 2 of Hypocrea jecorina, derived from SEQ ID NO 2 (protein, listed as Hypocrea jecorina)
chain: MLLSASLSALALATVSLAQGTTHIPVTGVPVSPGAAVPLRQNINDLAKSGPQWDLYVQAMYNMSKMDSHDPYSFFQIAGIHGAPYIEYNKAGAKSGDGWLGYCPHGEDLFISWHRPYVLLFEQALVSVAKGIANSYPPSVRAKYQAAAASLRAPYWDWAADSSVPAVTVPQTLKINVPSGSSTKTVDYTNPLKTYYFPRMSLTGSYGEFTGGGNDHTVRCAASKQSYPATANSNLAARPYKSWIYDVLTNSQNFADFASTSGPGINVEQIHNAIHWDGACGSQFLAPDYSGFDPLFFMHHAQVDRMWAFWEAIMPSSPLFTASYKGQSRFNSKSGSTITPDSPLQPFYQANGKFHTSNTVKSIQGMGYSYQGIEYWQKSQAQIKSSVTTIINQLYGPNSGKKRNAPRDFLSDIVTDVENLIKTRYFAKISVNVTEVTVRPAEINVYVGGQKAGSLIVMKLPAEGTVNGGFTIDNPMQSILHGGLRNAVQAFTEDIEVEILSKDGQAIPLETVPSLSIDLEVANVTLPSALDQLPKYGQRSRHRAKAAQRGHRFAVPHIPPL
modifications: signal peptide cleaved
On to B2, for which the “protein cross-linking (SDS-PAGE)” value in data set [3] was “varying degrees of myosin-band fading; also recorded: least extensive fading of the myosin band”; in [2] (pork extract), “no cross-linking seems to take place”; in data set [4], “the myosin band disappears entirely; also recorded: fading of the myosin band is most pronounced”; in data set [5] it was “varying degrees of myosin-band fading; also recorded: least extensive fading of the myosin band”; in data set [7], “varying degrees of myosin-band fading”; in [8], “indicating protein cross-linking”. Further, the specific activity entry in [9] is on record as “about 300 nkat/mg”. For the same molecule, the “tyrosinase activity after dialysis of extract (SDS-PAGE)” value in data set [2] (pork extract dialysed against the same solution as used for extraction) is given as “rendered the tyrosinase active”. The “tyrosinase activity after dilution of extract (SDS-PAGE)” value in data set [2] (ten times dilution of the pork extract prior to tyrosinase treatment, results not shown) was “rendered the enzyme active”. In addition, in data set [10], the tyrosinase activity is on record as 1067 nkat/ml. For the same molecule, in data set [8], the “tyrosinase cross-linking with or without sulfhydryl oxidase-treatment (SDS-PAGE)” value is on record as “able to cross-link proteins”.
